Results as given in article PMC6158489.
Where “and” joins values, the source holds several entries; their conditions need not be identical. Equal entries are not always repeated.

System: VpsR (Vibrio cholerae)
Assay: EMSA

PvpsL promoter fragment (-97 to +113)
Kd: 2220 nM and 1660 nM
